B1: XPA.42.089 (antibody, IgG2, V domains shown)
VH: QVQLVQSGAEVKKPGSSVKVSCKASGGTFSSYAISWVRQAPGQGLEWMGGIIPIFGTANYAQKFQGRVTITADESTSTAYMELSSLRSEDTAVYYCARGLWEVRALPSVYWGQGTLVTVSS
VL: SYELTQPPSVSVAPGQTARITCGANDIGSKSVHWYQQKAGQAPVLVVSEDIIRPSGIPERISGSNSGNTATLTISRVEAGDEADYYCQVWDRDSDQYVFGTGTKVTVLG
B2: XPA.42.068 (antibody, V domains shown)
VH: not shown
VL: SSELTQPPSVSVAPGEKARITCGGNNIGRKSVHWYQQRPGQAPVVVLYYDRVRPSGIPERFSGSNSGNTATLTITRVEAGDEADYFCQVWDNTSEHVVFGGGTQLTVLG
B3: TGFβ-RI (recombinant form) (receptor, UniProt P36897 34-126, looked up)
chain: LQCFCHLCTKDNFTCVTDGLCFVSVTETTDKVIHNSMCIAEIDLIPRDRPFVCAPSSKTGSVTTTYCCNQDHCNKIELPTTVKSSPGLGPVEL
notes: also called TGFβ receptor type 1 protein; TGFβ-R1
B4: XPA.42.681 (antibody, IgG2, V domains shown)
VH: not shown
VL: SYVLTQPPSVSVAPGKTARITCGGNNIGFRSVHWYQQKSGQAPVLVIYFDRARPSGIPERFSASNSENTATLTIRRVEAGDEADYYCQVWDSDSDDLVFGGGTQLTVLG

Columns and labels:
[1] = target: T1, TGFβ3 (human, UniProt P10600 301-412); test: SPR (Biacore 2000), TGFβ immobilised on CM1 chip, antibody injected
T1 construct: Commercial recombinant protein; also called transforming growth factor beta 3
T1 sequence (looked up): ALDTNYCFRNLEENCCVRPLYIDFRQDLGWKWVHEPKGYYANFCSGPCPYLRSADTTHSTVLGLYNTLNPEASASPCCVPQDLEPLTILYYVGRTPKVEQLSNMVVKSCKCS
Description: (§1) The chip surface was activated with four minute injections at 20 μL/minute of a freshly mixed 1:1 solution of 0.1M N-Hydroxysuccinimide (NHS) and 0.4M 1-Ethyl-3-(3-dimethylaminopropyl) carbodiimide hydrochloride (EDC). Following the activation injection a 0.1 ug/mL solution of TGFβ in acetate pH 4.0 was injected at 20 μL/minute for several minutes. […] Injections of TGFβ were performed as a series of 1 to 2 minute injections looking at immobilized level between each injection. The target immobilized density of each TGFβ ligand was 30 RU. After the TGFβ immobilization injections, 4 minutes of 1 M Ethanolamine hydrochloride-NaOH pH 8.5 was injected to block the surface.
(§2) Each of the antibodies was diluted in running buffer to 5 μg/mL (33.3 nM) and 4 subsequent five-fold dilutions were prepared setting up concentrations of 33.33 nM, 6.67 nM, 1.33 nM, 267 pM, and 53 pM for each. These were then injected using the Kinject setting for four minutes at 50 μL/minute, with a 900 second dissociation time. Regeneration was then performed with a 12 μL (14.4 second) injection of 100 mM HCl at 50 μL/minute followed by an 18 second buffer injection. Injections were across all flow cells simultaneously and samples were run injected in quadruplicates with blank injections bracketing each set of descending concentration injection groups for each antibody. This means that before the same sample was injected a second time all other concentrations of all antibodies were injected once.
(§3) The data were analyzed using Scrubber2 (BioLogic Software, Campbell Australia) and were double referenced by subtracting both the blank flow cell data and the averaged bracketing blank injections.

[2] = target: T2, TGFβ2 (human, UniProt P61812 303-414); test: as above
T2 construct: Commercial recombinant protein; also called transforming growth factor beta 2
T2 sequence (looked up): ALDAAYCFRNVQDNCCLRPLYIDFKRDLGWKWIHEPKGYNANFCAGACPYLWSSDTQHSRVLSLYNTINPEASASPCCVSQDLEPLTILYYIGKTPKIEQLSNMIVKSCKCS
Description: as §1, §2, §3

[3] = target: T3, TGFβ1 (human, UniProt P01137 279-390); test: as above
T3 construct: mature; also called transforming growth factor beta 1
Description: as §1, §2, §3

[4] = target: T1, TGFβ3; test: SPR (Biacore 2000), antibody immobilised on CM4 chip, TGFβ injected
Description: (§4) A CM4 sensor chip (GE Healthcare) was used on a BIACORE 2000 system (GE Healthcare). The chip was preconditioned with two 30 second injections each at 50 μL/minute flow rate of 100 mM HCl, Glycine pH 2.0, 50 mM NaOH, and running buffer prior to immobilization. Running buffer for immobilization was a HEPES Buffered Saline (HBS-EP+) with 10 mM Hepes, 150 mM Sodium Chloride, 3 mM EDTA, and 0.05% Polysorbate 20 (Teknova). The chip surface was activated with a seven minute injection at 10 μL/minute of a freshly mixed 1:1 solution of 0.1 M N-Hydroxysuccinimide (NHS) and 0.4 M 1-Ethyl-3-(3-dimethylaminopropyl) carbodiimide hydrochloride (EDC). Following the activation injection, 1 ug/mL anti-TGFβ antibody in acetate pH 4.5 was injected at 10 μL/minute for one minute, with injections targeting 120 RU. 8 minutes of 1M Ethanolamine hydrochloride-NaOH pH 8.5 was injected to block the surface. The NHS, EDC, and Ethanolamine used were from the BIACORE Amine Coupling Kit.
(§5) Kinetic Analysis was performed using a running buffer of thoroughly degassed form of the HBS-EP+ buffer above supplemented with 1 mg/mL BSA (Sigma Aldrich, St. Louis Mo.). TGFβ sample injections were performed at 50 μL/minute for four minutes with a 900 second dissociation time. […] Regeneration was then performed with three injections of 30 seconds each of 100 mM HCl in 3 M MgCl₂ followed by a final 30 second blank buffer injection.
(§6) The data were analyzed using Scrubber2 (BioLogic Software, Campbell Australia) and was double referenced by subtracting both the blank flow cell data and the averaged bracketing blank injections. […] TGFβ proteins were injected at the same concentrations as described above at 30 μL/minute.

[5] = target: T2, TGFβ2; test: as above
Description: as §4, §5, §6

[6] = target: T3, TGFβ1; test: as above
Description: as §4, §5, §6

[7] = target: T1, TGFβ3; test: SPR: 4 nM TGFβ without competitor injected over immobilised XPA.42.089 (about 300 RU)
Description: (§7) A CM5 sensor chip (GE Healthcare) was used on a BIACORE 2000 system. The chip was preconditioned with four 30 second injections at 50 uL/minute flow rate of 100 mM HCl prior to immobilization. Running buffer for immobilization was a HEPES Buffered Saline (HBS-EP+) with 10 mM Hepes, 150 mM Sodium Chloride, 3 mM EDTA, and 0.05% Polysorbate 20. The chip surface was activated with a seven minute injection at 10 uL/minute of a freshly mixed 1:1 solution of 0.1 M N-Hydroxysuccinimide (NHS) and 0.4 M 1-Ethyl-3-(3-dimethylaminopropyl) carbodiimide hydrochloride (EDC). […] Injections were monitored and performed sequentially to establish immobilization levels very close to 300 RU. Eight minutes of 1 M Ethanolamine hydrochloride-NaOH pH 8.5 was injected to block the surface. The NHS, EDC, and Ethanolamine used were from the BIACORE Amine Coupling Kit. Fc1 was the activated and deactivated control.
(§8) Competition assays were performed using a running buffer of thoroughly degassed form of the HBS-EP+ buffer above supplemented with 1 mg/mL BSA. […] The TGFβ-RIIb-Fc recombinant receptor (R&D Systems) also was included as a competitor. Samples were allowed to come to equilibrium for 40 minutes at room temperature before the BIACORE run was started. Equilibrated samples were then injected at 30 uL/minute for three minutes over all of the flow cells. Regeneration was performed every cycle with one injection of 50 mM NaOH at 50 uL/minute for 6 seconds (5 μLs) and followed by a thirty second buffer injection. Samples were run in duplicates and analyzed for level of TGFβ bound at the end of the three minutes.

[8] = target: T2, TGFβ2; test: as above
Description: as §7, §8

[9] = target: T3, TGFβ1; test: as above
Description: as §7, §8

[10] = target: T1, TGFβ3; test: SPR competition: 4 nM TGFβ pre-mixed with 133 nM of the row's molecule, injected over immobilised XPA.42.089 (self competition)
Description: as §7, §8

[11] = target: T2, TGFβ2; test: as above
Description: as §7, §8

[12] = target: T3, TGFβ1; test: as above
Description: as §7, §8

[13] = target: T2, TGFβ2; test: cell-based or functional assay
[14] = target: T3, TGFβ1; test: cell-based or functional assay
[15] = target: T1, TGFβ3; test: SPR competition: 4 nM TGFβ pre-mixed with 133 nM of the row's molecule, injected over immobilised XPA.42.089 (competitor)
Description: as §7, §8

[16] = target: T2, TGFβ2; test: as above
Description: as §7, §8

[17] = target: T3, TGFβ1; test: as above
Description: as §7, §8

[18] = target: T1, TGFβ3; test: cell-based or functional assay
[19] = target: T1, TGFβ3; test: SPR
[20] = target: T2, TGFβ2; test: SPR
[21] = target: T3, TGFβ1; test: SPR

Binder	Kd [1] [pM]	koff [1] [s⁻¹]	kon [1] [M⁻¹ s⁻¹]	Kd [2] [pM]	koff [2] [s⁻¹]	kon [2] [M⁻¹ s⁻¹]	Kd [3] [pM]	koff [3] [s⁻¹]	kon [3] [M⁻¹ s⁻¹]	Kd [4] [pM]	koff [4] [s⁻¹]	kon [4] [M⁻¹ s⁻¹]	Kd [5] [pM]	koff [5] [s⁻¹]	kon [5] [M⁻¹ s⁻¹]	Kd [6] [pM]	koff [6] [s⁻¹]	kon [6] [M⁻¹ s⁻¹]	IL-11 Release Assay - IC50 (A549 cells) [13] [µg/mL]	IL-11 Release Assay - IC50 (A549 cells) [14] [µg/mL]	other results
B1	> 17000	0.057	3.4e+06	290	0.00139	4.8e+06	177	0.00106	5.98e+06	1400	0.0109	7.7e+06	25	0.000414	1.62e+07	3.8	0.000167	4.4e+07	0.058	0.037	average RU of TGFβ binding [7]: 23.6 RU; average RU of TGFβ binding [8]: 61 RU; average RU of TGFβ binding [9]: 63.9 RU; average RU of TGFβ binding [10]: 9.77 RU; average RU of TGFβ binding [11]: 0.363 RU; average RU of TGFβ binding [12]: 1.7 RU
B2	1300	0.00696	5.45e+06	109	0.000798	7.3e+06	313	0.0017	5.44e+06	455	0.00384	8.45e+06	51	0.000535	1.04e+07	59	0.000905	1.53e+07	0.111	0.221	average RU of TGFβ binding [15]: 7.32 RU; average RU of TGFβ binding [16]: 5.18 RU; average RU of TGFβ binding [17]: 10.8 RU; IL-11 Release Assay - IC50 (A549 cells) [18]: 1.79 µg/mL
B3																					binding result [19]: no binding; binding result [20]: no binding; binding result [21]: no binding
B4	54	0.000665	1.23e+07	31	0.000394	1.28e+07	32	0.000363	1.14e+07	5.7	7.5e-05	1.3e+07	2.9	4.99e-05	1.71e+07	1.7	7.2e-05	4.25e+07	0.001	0.0004	IL-11 Release Assay - IC50 (A549 cells) [18]: 0.0008 µg/mL
